Measured values published in publication PMC10011503, “A novel compound targets the feline infectious peritonitis virus nucleocapsid protein and inhibits viral replication in cell culture” (The Journal of Biological Chemistry, 2023).

Columns and labels:
FCoV N [1] = target: T1, FCoV N (Feline infectious peritonitis virus (strain 79-1146), UniProt P25909); assay: biolayer interferometry, His-tagged N immobilized on Ni-NTA biosensor; format: binding; conditions: read-out: Kd ± SD
Excerpt: biolayer interferometry, His-tagged N immobilized on Ni-NTA biosensor on FCoV N

FCoV N [2] = target: T1, FCoV N; assay: filter binding, Lineweaver-Burk secondary plot, N with radiolabeled vRNA […]' NCR
FCoV N [3] = target: T1, FCoV N; assay: biolayer interferometry, inhibition of N binding to immobilized biotinylated vRNA […]' NCR
[4] = target: T2, FCoV nucleocapsid protein N (Feline alphacoronavirus (FCoV/FIPV) …, UniProt P25909 1-377); assay: filter binding; 80 mM NaCl; Filter binding: 40 mM Tris-HCl pH 7.4, 80 mM NaCl (160, 320 in series), 20 mM KCl, 1 mM DTT, room temperature, 30-45 min; BLI: 20 mM Tris-HCl pH 7.4, 80 mM NaCl, 20 mM KCl, 1 mM DTT, room temperature; conditions: protein: recombinant; tags: C-terminal His (pET-30a(+), NdeI/HindIII); chain copies: 2; label: [alpha-32P]GTP, internal
T2 sequence: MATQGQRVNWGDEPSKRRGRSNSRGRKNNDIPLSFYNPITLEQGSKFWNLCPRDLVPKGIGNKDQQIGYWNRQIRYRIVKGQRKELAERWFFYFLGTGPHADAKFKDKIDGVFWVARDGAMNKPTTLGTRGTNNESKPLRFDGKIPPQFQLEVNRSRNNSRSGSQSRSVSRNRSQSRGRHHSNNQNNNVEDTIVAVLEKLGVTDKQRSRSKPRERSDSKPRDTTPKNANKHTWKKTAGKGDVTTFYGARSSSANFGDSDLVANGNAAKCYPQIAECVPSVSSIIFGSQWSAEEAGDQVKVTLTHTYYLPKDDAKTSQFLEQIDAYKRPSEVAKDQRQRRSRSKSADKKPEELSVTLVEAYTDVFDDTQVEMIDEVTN

[5] = target: T2, FCoV nucleocapsid protein N; assay: filter binding; 160 mM NaCl; Filter binding: 40 mM Tris-HCl pH 7.4, 80 mM NaCl (160, 320 in series), 20 mM KCl, 1 mM DTT, room temperature, 30-45 min; BLI: 20 mM Tris-HCl pH 7.4, 80 mM NaCl, 20 mM KCl, 1 mM DTT, room temperature; conditions: protein: recombinant; tags: C-terminal His (pET-30a(+), NdeI/HindIII); chain copies: 2; label: [alpha-32P]GTP, internal
[6] = target: T2, FCoV nucleocapsid protein N; assay: filter binding; 320 mM NaCl; Filter binding: 40 mM Tris-HCl pH 7.4, 80 mM NaCl (160, 320 in series), 20 mM KCl, 1 mM DTT, room temperature, 30-45 min; BLI: 20 mM Tris-HCl pH 7.4, 80 mM NaCl, 20 mM KCl, 1 mM DTT, room temperature; conditions: protein: recombinant; tags: C-terminal His (pET-30a(+), NdeI/HindIII); chain copies: 2; label: [alpha-32P]GTP, internal
[7] = target: T2, FCoV nucleocapsid protein N; assay: BLI; 80 mM NaCl; kass 3.195e5 M-1s-1, kdis 5.931e-3 s-1; Filter binding: 40 mM Tris-HCl pH 7.4, 80 mM NaCl (160, 320 in series), 20 mM KCl, 1 mM DTT, room temperature, 30-45 min; BLI: 20 mM Tris-HCl pH 7.4, 80 mM NaCl, 20 mM KCl, 1 mM DTT, room temperature; conditions: protein: recombinant; tags: C-terminal His (pET-30a(+), NdeI/HindIII); chain copies: 2

O=C(O)c1cccc2c1NC(c1cccc(Br)c1)C1CC=CC21 (stereo not shown) [K31, 4-(3-Bromophenyl)-3a,4,5,9b-tetrahydro-3H-cycloppenta [c] quinoline-6-carboxylix acid]
Kd (FCoV N [1]): 0.35 ± 0.017 µM
Ki (FCoV N [2]): ~0.246 µM
IC50 (FCoV N [3]): ~0.85 µM

ACUUUUAAAGUAAAGUGAGUGUAGCGUGGCUAUAAC (ssRNA) [vRNA 5' NCR (36 nt, radiolabeled)]
Kd [4]: 0.029 ± 0.0016 µM
Kd [5]: 0.0307 ± 0.0075 µM
Kd [6]: 0.035 ± 0.007 µM

ACUUUUAAAGUAAAGUGAGUGUAGCGUGGCUAUAAC (ssRNA) [vRNA 5' NCR (36 nt, biotinylated)]
Kd [7]: 0.018 ± 0.0018 µM
